Where a chain is given by its changes, count along the chain named. Where two headings read alike, the source gives them in different places.

This is an account of results in publication PMC4573856 (Genes & Development, 2015).

Assay [1] deals with T1, Dm eIF4E (residues 69-248) used for ITC (Drosophila melanogaster, UniProt P48598-2 69-248).
T1 sequence (looked up): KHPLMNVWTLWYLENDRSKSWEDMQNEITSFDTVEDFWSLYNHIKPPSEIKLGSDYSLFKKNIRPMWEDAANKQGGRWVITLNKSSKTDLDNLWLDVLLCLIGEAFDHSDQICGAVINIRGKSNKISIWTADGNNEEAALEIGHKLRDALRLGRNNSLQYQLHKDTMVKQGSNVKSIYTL
The experiment in a line: ITC.

Assay [2] has as its target T2, His6-tagged Dm eIF4E (residues 69-248) (Drosophila melanogaster, UniProt P48598-2 69-248).
T2 sequence (looked up): T1 sequence (looked up)
The experiment in a line: pull-down.

Assay [3] has as its target T2, His6-tagged Dm eIF4E (residues 69-248). Nature of the assay: pull-down. This is another data set of the same source.

B1: GB1-stabilized Dm Mxt peptide C + NC (residues 577-620) (domain or fragment, Drosophila melanogaster, UniProt Q9VR35 577-620, looked up)
chain: SRVSYDIEHLLYYSMSPHSWTLPTDWQKMQETAPSILRNKDLQD
For orientation: Kd means the concentration at which binding is half-saturated. In assay [1], B1 had a Kd of 5 nM.

B2: MBP-tagged Dm Mxt fragment 577-620 IS-RR mutant C-terminally fused to GB1 (domain or fragment, Drosophila melanogaster, UniProt Q9VR35 577-620, looked up)
chain: B1 chain with I7R, S14R
Consider B2, for which, in assay [2], the binding result is listed as “binds”.

B3: GB1-tagged Dm Mxt C + NC IS-RR mutant peptide (domain or fragment, Drosophila melanogaster, UniProt Q9VR35 577-620, looked up)
chain: B1 chain with I7R, S14R
B3: in assay [3], the binding result was “binds”.

B4: GB1-stabilized Dm Mxt peptide (residues 577-640) (domain or fragment, Drosophila melanogaster, UniProt Q9VR35 577-640, looked up)
chain: SRVSYDIEHLLYYSMSPHSWTLPTDWQKMQETAPSILRNKDLQDESQRFDGDKYLASIKTAAKR
modifications: also: 15N-labelled, GB1-stabilized (GB1 fusion)
Consider B4, for which the Kd in assay [1] came to 0.5 nM.

B5: Dm eIF4G (residues 578-650) C-terminally fused to GB1 (domain or fragment, Drosophila melanogaster, UniProt O61380 578-650, looked up)
chain: PETTLNDKQDSTDLKVKVSAKISSIINYNEGQWSPNNPSGKKQYDREQLLQLREVKASRIQPEVKNVSILPQP
As for B5, the binding result in assay [2] is on record as “binds”.
